Assay: soluble on expression in E. coli; label from the status in PepcDB or PDB records

Row | Sequence | soluble on expression in E. coli
1 | MDRINGLSDEIICHILSFLPTKESALTSVLSKRWRNLFALTPNLHLVDDDLEVGGCGQTLIDFVDRVLAVSSNLPIREFSIKC | soluble
2 | MDRKTRLSEPPTLALRLKPYKTAIQQLRSVIRALKENTTVTFLPTPSLILQTVRSHCVSKITFNSSCLYITDKSFQPKTINNSTPLLGNFMYLTSSKDLTKFYVQDISDLSAKISMCAPDFNMEFSSACVHGQDIVRESENSAVHVDLDFGVVADLLKWIGPHTRVKRNVKKAPCPTGTVQILVHAGPPAIKFILTNGSELEFTSNNRVSFHGVKNMRINVQLKNFYQTLLNCAVTKLPCTLRIVTEHDTLLYVASRNGLFAVENFLTEEPFQRGDPFDKNYVGNSGKSR | soluble
3 | MDRMDKAAKINIINANVRNAQTGDYYYNPYKIVNKTFTDTDGKQVTLKIGITGVLPTQILVWDKANLEGKVTVDDPMEAVKTIVPQMKAAGADFILVAAHSGIGDNEYTKNEENEGYQIAGIEGVDAVATGHSHADFPNGDGTSFYAKYPGVDDVNGLINGKPVVMAGKFGDHLGIMDVKLTYTDGKWKVVNSKAKLEKIDTKSDIADKALIDMAAHDHDGTILTMFVRKLVRPL | not soluble
4 | MDSEQINVNLDIGAKAVMLARRAAAAKLNNEKLPEVPDDPIFHEKHGVFTTINTYPDNQLRGCIGFPEPYYELGEGIIKSSIYAATDDPRFDPMEPDELNRVTFELSILTVPQEVTVNPEERPKAITVGKDGIIAVYNGASGLLLPQVATEYRMSAEEFLEALCEKAGLWQGCWKYKKVKISKFQAIVFGEIEPNGKVEQRAAALEHHHHHH | soluble
5 | MDSGRLAVIALGGNAIAGPGMDVSVESQTAAVKRASSIIADVLADGWRSVITHGNGPQVGYLSEAFEALPPERPRQPLYIATAMTQAWIGLLLKHSLEEELRRRGLNVLVPVVISRVLVDVSDPSFNNPSKPVGPIYGREEAEELSRRYGWVFKRDPRGGFRRVVPSPRPVSIVDRDLIAEASAESPAVVALGGGGVPVVERPGGVLEPVEAVVDKDLASSLLATQLNADLLVILTDVPGVAVNYGREGERWLRRAAASELKKYLREGHFPPGSMGPKVEAAISFVERTGKPAVIGSLEEARQVLSLQAGTVVMLG | soluble
6 | MDSGYWQSQFEDWLRHHHQEQDAAHDIFHFRRVWATAQTLGENSPVDWLVVLSACYFHDIVSLAKNHPQRHRSSILAAAETRRIFLRDFPDFPAEKLAGICHAIEAHSFSAKIAPTTPEAKIVQDADRLEALGAIGLARVFAVSGALGVALFDADDPFANRRPLNDKQFALDHFQTKLLKLPLTMQTERGKSLAQRNADFLVSYMAKLSAELKGDYETRDDAVIQMFATHQLEHHHHHH | soluble
7 | MDSLPTSATNGPAGLSAEADAEPHARLTFDLDVDLCVIGAGLAGLSVALEAAQAGLSVAVLESGRIGWGASGHNLGSVTPGYGVPIGDLIARVGLDHASALWALTREGMEIVRARATEEAMPGVALSDGALEVSNVDIGDRLVERLQTLGVDFGSEVEGWPIDKVRDVLRTNRYFHGIHYPTAFQLDGRRYLRGLERLARQAGARIFEETPAVSIDFAGIRKRISTPNARLRASDIVLAGSVHLGAPSPRVAETLLPVWRTAALTAPLGEQLPDAIAFAGSIADTDGVDHYRIVGGDRLLWASGETTFDVAPQRLAGIIRRRIAAVFPQLGQVEIAQTFSAAVGMTVHGMPQVGELRPGLWVASGFGRQGLATTAIAGRLIARGLTHSDERWKLFSPFDLVWAGGTIGRIVGQGVYFATREGALAAGALARYRERAAARTRVRDARAEVKQEERRARVALLRAAEAANVPPPNAPSRRPVPPPSPELEHHHHHH | not soluble
8 | MDTEKLRRQLIDRITDNYSEYRASLLLKDRQELIDGAGRIADTATVFQHLADRSYKPEELEYLLKFQNPLEVVTEHWADYELMPDVLDALIADTVDRQDDLTLFPLATDAPAQKPESLRKFLNVDLETVLPQIMKQKTAFYQTDLNYALDAMREGATSGDPAKQNFVLIFRQSGVECLNERDMFIGGTRSFNTLQFYHTQTREPVLTYSVELTGDGKDGLRGNLYQQDNHRLAEYAGRTASPYTDVTVTFTGGKEVRLPEKEFYYEKAASLKYLHGSIKEVRNEAEDETVVQGAVKREHDRRREMPRGYFAVHLQALDEQRIQAEADRLSSALTDLKQPNSPDKEKFMVEISVYFLPLASQHDMNRLFEKVRDQVGQTVYITPPDDTHKRYFVMRREERAQEQPERKPSIKAQLSAKPVPGDKPATKTKDREVR | not soluble
9 | MDTFEKLDKVDLQILRTLQENARLTTKELAARVSLSSTPVFERLKRLESGGYIKKYIAVLDAEKLNQGFVVFCSVKLRRLNRDIAAEFTRIIQDIPEVTECYNISGSYDYLLKIHAPNMKYYQEFILNVLGTIDSLGSLESTFVMAEVKHRYGIHI | soluble
10 | MDTLQGMRVFARVVDSGSFTSAAQALDLSTAQVSRLISDLEAHLQTRLLHRTTRRLALTEAGERYLERCRGILEDIEVAEAEAAGAHIRPCGRLRVQSLMGMGQHHLVPMIARYGALFPDVVIELTLSQRNPDMLEEGQDVLITGERQLPDSEFVAQRLGSIHSVLCASPGYLQQHGVPRSVDDLERHVCLRLQDPAYPEGWIFADEQGERTVSPQNTFMVNVAEVMAQAAKADLGIALLPSYVAAAALRNGELLRVLPGHAMHQRTIYALYPSRRYLDAKIRTWVDLLQQELPQAFARDETTMQSSSYCAQ | not soluble
11 | MDTPPTVFSIIIPVYNRPDEVRELLESLLIQTNSDFEVIIVEDGSSVCCDKEVDRVRELLRIQYVRVPNGGPAAARNIGARMAVGEYLLILDSDVVLPSGYIAAVKKRIEQMQADAFGGPDAAAEGFSPIQKAINYAMTSFFTTGGIRGGRRVRLDKFYPRSFNFGCKLSVYRQLGGFSEEMRFGEDIDFSLRLFKAGYNVCLFPEAFVFHKRRIDFKKFFRQVYNSGIARIHLQRRHPGSMKP | not soluble
12 | MDVNTASQSTTDEQMMDILLVLDKEKKTISAVKGVDENGELQTVPPENNSELLKFDRHGDFFSNFFSNMMNQLKNPTRFNFFKIPKIELPKIEPIIRDNFNHPTPENEAGIERYRVTPETVKQEAKKEQQETQAQQPQQPAKEAGAMAQTPQQPDKSKYVIDPDKVDWEALKNFGLSKEQLEKAKALEPMLRGYKSPGAFTIAGNYNSAIMKLDARLSFRHDKDGNVVLAIHGIRQKPELERPFFGHEFSKEDKANLLETGNMGRIVNLKNYITGEMIPSFVSVDKVTNELVSMRASSVQIPDEIKGVKLNKEQKQALREGKGVFLENMISNRKNPFSATVQVNADKKSLEFIYPNAKQSQEQGQKQTQQNSLVTSDGVTIPKSISGIELSRQQQQDLVNDKTIFVAGLKDKRGVEYDAYIQVNHDKKKLGFYSDNPSFDRSAVKEITPASKNRTQVAVNSEGKTNEATKKVKEPLKKGQDKPTEKQKTKQDKKEKQEQTDKPKQSRGRKR | not soluble
13 | MDWGRFVEEKVREIRETVGDSKAIIALSGGVDSSTAAVLAHKAIGDRLHAVFVNTGFLRKGEPEFVVKTFRDEFGMNLHYVDAQDRFFSALKGVTDPEEKRKIIGRVFIEVFEEVAKKIGAEYLIQGTIAPDWIESQGKIKSHHNVGGLPEKLNLKLIEPLRDLYKDEVRELAKFLGLPEKIYNRMPFPGPGLAVRVIGEVTPEKIRIVREANAIVEEEVERAGLRPWQAFAVLLGVKTVGVQGDIRAYKETIAVRIVESIDGMTANAMNVPWEVLQRIAFRITSEIPEVGRVLYDITNKPPATIEFE | soluble
14 | MDYSHQTSLVPCGQDKYISKNELLLHLKTYNLYYEGQNLQLRHREEEDEFIVEGLLNISWGLRRPIRLQMQDDNERIRPPPSSSSWHSGCNLGAQGTTLKPLTVPKVQISEVDAPPEGDQMPSSTDSRGLKPLQEDTPQLMRTRSDVGVRRRGNVRTPSDQRRIRRHRFSINGHFYNHKTSVFTPAYGSVTNVRINSTMTTPQVLKLLLNKFKIENSAEEFALYVVHTSGEKQKLKATDYPLIARILQGPCEQISKVFLMEKDQVEEVTYDVAQYIKFEMPVLKSFIQKLQEEEDREVKKLMRKYTVLRLMIRQRLEEIAETPATILEHHHHHH | soluble
15 | MDYSKIIKEVGRGKNHARDLDQPTAYALYKAMLAGQVPALELGGILIAFRIKGESEQEILGFYQAMQEQVMSLRAPVDRPLPVVIPSYNGARKQANLTPLLALLLSRLGLPVVVHGVTEDSSRVTSAEIFQQLNIPWSLSVQEAQQRLDNGLPVFIPVSALSMQLDQQLQQRWRMGVRNSSHTLAKLATPFTHDKALRVASVSHPEYMQKVGGFFQAISAPGLLLQGTEGEVYANPLRCPPIHYINDGEQTILLDRSSESVVPELPLSKDAVITARWIEGCLAGEQPIPDSILKQLACCLVAAGQADSVELALQQIKIV | not soluble
16 | MEALEEYTPTLLGEVAATLRGENELWLGLALISGKFNDLEPEQLAAAASALITETPRSDAWTDFKPSPVVLAALRPSNDLFGLLFCLKHPQPPLALWQAMTVADHLQRLNLWDLRRKLIKAQNQRAIAIPLWLEVDFMGLVEQWALGMEWENLCRQTSLDEGDLVRLFRRTVDLLWQIPQVPHLSPRLKRNARIAVQQMKRFPLLEHHHHHH | not soluble
17 | MEALRASYGDSSSDSDTDDLSPASPVTANSGEKDSISLPPPPLALLDSIVSTGSLDFFSTEPGVRVRNFPHVDGNYALHVYVPVCIPPLPKKEIVCFLKKVASVVPHLHLVEADVPLSILCKDDQKFERALGREFHISLGRNVPLRVHQINSVISMLRQKLQLQKRYLIDFNKWEVFVNDDHTRSFLSLEITTSGLSEISKQIDAVNEVYKLHNLPEFYKDPRPHISLVWALGDIRTSLKGAVDVELRKLRAGGCVQNRIFTSKFCGIECKIGNKTHKICKLPDE | soluble
18 | MEALRLGFSPCPNDTFIFYALVHGRVESPVPLEPVLEDVETLNRWALEGRLPLTKLSYAAYAQVRDRYVALRSGGALGRGVGPLVVARGPLQALEGLRVAVPGRHTTAYFLLSLYAQGFVPVEVRYDRILPMVAQGEVEAGLIIHESRFTYPRYGLVQVVDLGAWWEERTGLPLPLGAILARRDLGEGLIRALDEAVRRSVAYALAHPEEALDYMRAHAQELSDEVIWAHVHTYVNAFSLDVGEEGERAVARLFAEAEARGLAAPSPRPLFV | soluble
19 | MEAVDLAFANYAERFARSCKGDGWRRLVERAIRLYLTPVLGKKALPAINRTDVVSVFDNMPADQVANRRNVFAVLRRLFRWAVSRGDLDRSPMEGMLEHHHHHH | not soluble
20 | MEAVVDVVDVEEVVEDVDVVVVDQDAVAVVDLNVVVLVVELVAVLDVVLAADHAVVDVVADVVVDAVDVEVEVVSVVPFKNFELMKPIVHLGLKKDHLMTNVSPIIYSPFIYYHDS | not soluble
21 | MEDFFSIGQIINTHGVRGELKIYPLTDDINRFDDLDSVYVDNEIKKVISVKKQPNKLILKLEGIDTLDEAVKYKNKYIKVLREDAVELKEGQYFIKDIIGCNVFDENDKDLGEVYDVISTKNNDVYCIRKEGQQDILVPALKDIVLKIEIENKKIVIKAVEEWLESLEHHHHHH | soluble
22 | MEDIKSLLLQCPVLAGLPVEGINEAVQIVRARHFDEKALICSKGAQHSSLMVIAKGSVRVNSISSKGKEVTLMIFETGGWFGDNVFSPGMPRIFGATAHTDVTLLELPGDKFRQLLAKYPQSYPVILDLLSRRLWSAISVIEDDAIRGIEERIGRRLLLLAEYQHNRPISAQSCVVKVTREHIANMMGLTRQSVHKVLKKLENSNVLRLQYGSITILNPLKMEAYLKQLE | not soluble
